What is called stoichiometry N is the number of molecules, sites or subunits per partner or assembly.

The results in this text go back to publication PMC8812686 (Proceedings of the National Academy of Sciences of the …, 2022).

This series concerns the molecule itself. Briefly: SEC. (SEC sorts molecules by how far they enter the pores of the column.)

B1: HCcmL, CcmL with a pentahistidine tag (Histag) inserted between D33 and G34 (natural protein, Thermosynechococcus elongatus BP-1)
chain: MKIARVCGTVTSTQKEDTLTGVKFLVLQYLGEDHHHHHGEFLPDYEVAADTVGAGQDEWVLVSRGSAARHIINGTDKPIDAAVVAIIDTVSRDNYLLYSKRTQY
In the case of B1, the “stoichiometry N” value worked out at 5.

B2: CcmL, pentameric vertex protein of the β-carboxysome from Thermosynechococcus elongatus BP-1 (natural protein)
chain: MKIARVCGTVTSTQKEDTLTGVKFLVLQYLGEDGEFLPDYEVAADTVGAGQDEWVLVSRGSAARHIINGTDKPIDAAVVAIIDTVSRDNYLLYSKRTQY
As for B2, the “stoichiometry N” value is 5.
